In assay [1] the target is T1, human ASCT2 (system ASC amino acid transporter 2, SLC1A5) (human, UniProt Q15758 1-541).
T1 sequence (looked up): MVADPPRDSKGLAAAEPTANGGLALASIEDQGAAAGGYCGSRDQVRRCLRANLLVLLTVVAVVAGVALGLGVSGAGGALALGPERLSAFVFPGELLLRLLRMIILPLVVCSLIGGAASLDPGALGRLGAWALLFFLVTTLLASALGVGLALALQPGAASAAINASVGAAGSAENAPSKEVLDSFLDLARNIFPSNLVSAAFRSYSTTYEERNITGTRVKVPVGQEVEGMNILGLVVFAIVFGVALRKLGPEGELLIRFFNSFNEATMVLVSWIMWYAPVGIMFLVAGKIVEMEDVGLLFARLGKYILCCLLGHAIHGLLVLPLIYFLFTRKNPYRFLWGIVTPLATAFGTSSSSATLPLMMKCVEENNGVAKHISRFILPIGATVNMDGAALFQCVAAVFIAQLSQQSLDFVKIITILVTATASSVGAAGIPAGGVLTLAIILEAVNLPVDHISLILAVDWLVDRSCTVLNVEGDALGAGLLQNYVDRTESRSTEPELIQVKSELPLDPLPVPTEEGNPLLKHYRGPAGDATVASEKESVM
Kind of assay: cell-based or functional assay.

Assay [2] has as its target T2, cynomolgus monkey ASCT2 (cynomolgus monkey (Macaca fascicularis), UniProt G7PXZ3 1-542).
T2 construct: whole, on cells; Present on stably transfected CHOK1 cells or endogenously on the cyno cell line CynoMK1; also called cyno ASCT2; CynoASCT2
T2 sequence: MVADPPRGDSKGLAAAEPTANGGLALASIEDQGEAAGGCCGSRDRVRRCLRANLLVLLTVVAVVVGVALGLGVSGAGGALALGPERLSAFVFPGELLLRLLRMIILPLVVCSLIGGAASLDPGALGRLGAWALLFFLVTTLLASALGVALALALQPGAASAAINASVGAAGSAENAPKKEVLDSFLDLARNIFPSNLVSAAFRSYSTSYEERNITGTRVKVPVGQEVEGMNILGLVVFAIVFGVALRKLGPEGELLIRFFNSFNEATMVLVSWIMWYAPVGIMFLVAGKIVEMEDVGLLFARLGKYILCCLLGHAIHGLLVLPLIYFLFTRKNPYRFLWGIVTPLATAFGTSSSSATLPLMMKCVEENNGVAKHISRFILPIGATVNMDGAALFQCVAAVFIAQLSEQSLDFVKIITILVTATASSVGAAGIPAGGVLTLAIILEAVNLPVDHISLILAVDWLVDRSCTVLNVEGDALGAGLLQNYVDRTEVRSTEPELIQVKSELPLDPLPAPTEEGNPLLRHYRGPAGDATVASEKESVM
Kind of assay: flow cytometry, titration of fluorophore-labelled antibody on cyno cell line Cyno MK1. Here is the method: (§1) Human, cynomolgous monkey, and CHO-derived cell lines expressing ASCT2 were utilized to assessed binding affinity and cross reactivity of ASCT2-specific antibodies. Apparent affinities were measured by titrating fluorophore labeled antibodies.
(§2) Results for human cancer cell line Ca127 are shown in FIG. 6A; results for human cancer cell line FaDu are shown in FIG. 6B; results for human cancer cell line SSC15 are shown in FIG. 6C; results for human cancer cell line WiDr are shown in FIG. 6D; results for CHOK1 cells stably expressing human ASCT2 are shown in FIG. 6E; results for CHOK1 cells stably expressing cyno ASCT2 are shown in FIG. 6F); results for cyno cancer cell line CynoMK1 are shown in FIG. 6G; and results for mock transfected CHOK1 cells are shown in FIG. 6H.
A general note: A flow cytometer gives signals particle by particle.

For assay [3], the target named is T2, cynomolgus monkey ASCT2. The assay is described as follows: flow cytometry, titration of fluorophore-labelled antibody on CHOK1 cells stably expressing cyno ASCT2. As to the method: as §1, §2
Assay [4] deals with T1, human ASCT2 (system ASC amino acid …). Kind of assay: flow cytometry, titration of fluorophore-labelled antibody on WiDr cells. Here is the method: as §1, §2
For assay [5] the target is unchanged. Kind of assay: flow cytometry, titration of fluorophore-labelled antibody on Cal27 cells. Here is the method:
as §1, §2

Assay [6] shares this target. The assay is described as follows: flow cytometry, titration of fluorophore-labelled antibody on FaDu cells. Here is the method:
as §1, §2

For assay [7] the target is unchanged. The assay is described as follows: flow cytometry, titration of fluorophore-labelled antibody on SSC15 cells. As to the method:
as §1, §2

For assay [8] the target is unchanged. Kind of assay: flow cytometry, titration of fluorophore-labelled antibody on CHOK1 cells stably expressing human ASCT2. As to the method: as §1, §2
Assay [9] deals with T2, cynomolgus monkey ASCT2. The assay is described as follows: binding to CHOK1 cells stably expressing cyno ASCT2; clones conjugated to tubulysin AZ1508 per paragraph 353.
The target in assay [10] is T2, cynomolgus monkey ASCT2. The assay is described as follows: cell-based or functional assay.
The target in assay [11] is T1, human ASCT2 (system ASC amino acid …). The assay is described as follows: cell-based or functional assay. This is another data set of the same source.
The target is the same in assay [12]. The assay is described as follows: binding to CHOK1 cells stably expressing human ASCT2; clones conjugated to tubulysin AZ1508 per paragraph 353.
Assay [13] shares this target. Kind of assay: cell-based or functional assay. The source holds these as a separate data set.
A further assay concerns the target T3, ASCT1 (SLC1A4) (human, UniProt P43007 1-532).
T3 construct: whole, on cells; also called ASC transporter 1; human ASCT1
T3 sequence (looked up): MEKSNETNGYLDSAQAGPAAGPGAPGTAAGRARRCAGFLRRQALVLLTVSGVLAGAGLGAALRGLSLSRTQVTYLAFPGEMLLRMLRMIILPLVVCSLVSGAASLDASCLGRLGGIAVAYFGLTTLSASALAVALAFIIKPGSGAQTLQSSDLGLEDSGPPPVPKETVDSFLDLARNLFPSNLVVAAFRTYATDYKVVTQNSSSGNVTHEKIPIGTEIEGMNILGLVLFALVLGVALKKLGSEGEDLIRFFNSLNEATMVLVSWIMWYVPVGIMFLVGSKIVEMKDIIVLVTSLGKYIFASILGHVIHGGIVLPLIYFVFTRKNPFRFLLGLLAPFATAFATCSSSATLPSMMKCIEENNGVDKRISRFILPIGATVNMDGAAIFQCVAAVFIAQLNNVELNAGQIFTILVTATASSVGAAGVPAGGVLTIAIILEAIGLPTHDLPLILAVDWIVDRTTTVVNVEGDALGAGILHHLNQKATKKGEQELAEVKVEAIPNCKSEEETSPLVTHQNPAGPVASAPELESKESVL
Kind of assay: flow cytometry on SKMEL-2 cells after shRNA knockdown of ASCT1 (binding not ablated).

In assay [14] the target is T1, human ASCT2 (system ASC amino acid …). Kind of assay: flow cytometry on WiDr cells and CHO cells expressing HuASCT2. The source says:
The amino acid sequences of the VH and VL domains for 17c10 were aligned to the known human germline sequences in the VBASE database, and the closest germline was identified by sequence similarity. For the VH domain, this was IgVh4-34*01; for the VL domain, it was IgKv1-5*03. For 17c10, the germlining process involved reverting 1 framework residue in the VH domain and 5 residues in the VL domain. In the VH domain, the reversion mutation was at Kabat position 82a, where threonine (T) was reverted to serine (S). In the VL domain, the mutations were at Kabat position 13, 21, 39, 70, and 76 where at Kabat position 13 threonine (T) was reverted to alanine (A); at Kabat position 21 leucine (L) was reverted to isoleucine (I); at Kabat position 39 Asparagine (N) was reverted to lysine (K); at Kabat position 70 aspartate (D) was reverted to glutamate (E), and at Kabat position 76 threonine (T) was reverted to serine (S). These changes were made by synthesizing VH and VL domains with these mutations and replacing existing VH and VL using restriction digestion and ligation. Both the germlined and original (non-germlined) 17c10 were expressed as IgGs, and their affinity to multiple ASCT2-expressing cell lines was assessed by flow cytometry.

The source of these data is patent US20190367605A1 (AstraZeneca / MedImmune, published 2019).

Broadly, the EC50 is the concentration needed to bring the measured effect to its halfway point.

Residue numbers refer to the chain shown, from its start.

B1: anti-ASCT2 17C10 classically conjugated to tubulysin AZ1508 (antibody, human IgG1, V domains shown)
VH: QVQLQQWGAGLLKPSETLSLTCAVYGGSFSGYYWSWIRQPPGKGLEWIGEIHHSGGANYNPSLKSRVTISVDTSKNQFSLKLTSVTAADTAVYYCARGQGKNWHYDYFDYWGQGTLVTVSS
VL: DIQMTQSPSTLSTSVGDRVTLTCRASQSIRSWLAWYQQNPGKAPKLLIYKASILKIGVPSRFSGSGSGTDFTLTITSLQPDDFATYYCQQYYSYSRTFGQGTKVEIK
modifications: tubulysin AZ1508 conjugated classically (native cysteine residues, thiol-maleimide linkage); positions not given
Regarding B1, the “IC50 (ng/ml), ADC-mediated cytotoxic killing, SW48 cells, CellTiter-Glo, 72 h” value in [1] is 46 ng/mL.

B2: anti-ASCT2 antibody 1e8 (original) (antibody, V domains shown)
VH: B1 VH with R38P, L45V, H52N, G56S, A57T, V71S, H104N
VL: B1 VL with T13A, N39K, I53S, I56S, T76S, Y94F
notes: also called ASCT2 mAb 1e8
With B2, the half-maximal effective concentration (EC50) in the assay with cynomolgus monkey ASCT2 [2] was 14.8 nM; with cynomolgus monkey ASCT2 [3], 28.4 nM; in [4] it was 5.8 nM; in assay [5], 13 nM; in [6] it was 6.8 nM; in assay [7], 8.8 nM. For the same molecule, in assay [8], the EC50 was determined as 8.1 nM.

B3: anti-ASCT2 antibody 1e8 conjugated to tubulysin AZ1508 (Example 4) (antibody, V domains shown)
VH: B1 VH with R38P, L45V, H52N, G56S, A57T, V71S, H104N
VL: B1 VL with T13A, N39K, I53S, I56S, T76S, Y94F
modifications: tubulysin AZ1508 conjugated; mode and site of conjugation not stated for these experiments
notes: Antibody-drug conjugate; also called 1e8 conjugated to tubulysin 1508
Consider B3, for which the EC50 was 28.4 nM in the assay with cynomolgus monkey ASCT2 [9] and 8.1 nM in assay [12]. For the same molecule, in the assay with cynomolgus monkey ASCT2 [10], the “Cytotoxicity IC50 (ng/ml), CHOK1 cells stably expressing cyno ASCT2” value came out at 140 ng/mL. Besides, the “Cytotoxicity IC50 (ng/ml), CHOK1 cells stably expressing human ASCT2” value in assay [11] turned out to be 20.7 ng/mL.

B4: anti-ASCT2 1E8 classically conjugated to tubulysin AZ1508 (antibody, human IgG1, V domains shown)
VH: B1 VH with R38P, L45V, H52N, G56S, A57T, V71S, H104N
VL: B1 VL with T13A, N39K, I53S, I56S, T76S, Y94F
modifications: tubulysin AZ1508 conjugated classically (native cysteine residues, thiol-maleimide linkage); positions not given
Turning to B4, the “IC50 (ng/ml), ADC-mediated cytotoxic killing, SW48 cells, CellTiter-Glo, 72 h” value in [1] came to 34.8 ng/mL.

B5: anti-ASCT2 antibody 17c10 conjugated to tubulysin AZ1508 (17c10-AZ1508, Example 4) (antibody, V domains shown)
VH: B1 VH
VL: B1 VL
modifications: tubulysin AZ1508 conjugated; mode and site of conjugation not stated for these experiments
notes: Antibody-drug conjugate; also called 17c10-ADC; ASCT2-ADC
Regarding B5, the EC50 with cynomolgus monkey ASCT2 [9] stood at 9.6 nM. Moreover, the “Cytotoxicity IC50 (ng/ml), CHOK1 cells stably expressing cyno ASCT2” value with cynomolgus monkey ASCT2 [10] was determined as 8.59 ng/mL. In addition, in assay [11], the “Cytotoxicity IC50 (ng/ml), CHOK1 cells stably expressing human ASCT2” value came to 5.53 ng/mL. Moreover, in [13], the “IC50 (ng/ml), cytotoxic killing of SKMEL-2 cells with ASCT1-shRNA1” value is 7.59 ng/mL; the “IC50 (ng/ml), cytotoxic killing of SKMEL-2 cells with ASCT1-shRNA2” value turned out to be 4.96 ng/mL; the “IC50 (ng/ml), cytotoxic killing of SKMEL-2 cells with ASCT2-shRNA” value amounted to 205 ng/mL; the “IC50 (ng/ml), cytotoxic killing of SKMEL-2 cells with NTshRNA” value worked out at 14.3 ng/mL. Further, the half-maximal effective concentration (EC50) in [12] stood at 8.6 nM.

B6: anti-ASCT2 antibody 17c10 (original, non-germlined, parental) (antibody, V domains shown)
VH: B1 VH
VL: B1 VL
notes: also called 17c10 parental antibody; ASCT2 mAb 17c10
As for B6, the EC50 with cynomolgus monkey ASCT2 [2] came to 6.7 nM; with cynomolgus monkey ASCT2 [3] it was 9.6 nM; in [4], 7 nM; in assay [5], 2.8 nM; in assay [6], 3.8 nM; in assay [7] it was 3.6 nM. Also, in assay [8], the EC50 turned out to be 8.6 nM. Besides, in the assay with ASCT1 (SLC1A4), the binding result is reported as “no binding”.

B7: germlined 17c10 antibody (antibody, V domains shown)
VH: B1 VH with T83S
VL: B1 VL with T13A, L21I, N39K, D70E, T76S
notes: also called 17c10 germlined antibody
Take B7: the binding result in assay [14] is reported as “binds”.
